Data taken from patent US20090239794A1, “HCV F PROTEIN AND USES THEREOF” (priority 2004, published 2009).
Values joined by “and” are separate entries in the source; they are usually repeats but may differ in a detail not shown here. Equal values may be shown once.

Tested on: C57Bl/6 mice
Assay: Protocol 1: ARFP immunization of mice, total anti-ARFP Ig ELISA
[1] = individual mice 31-45, 1st immunization (day 0), listed as ARFP
[2] = individual mice 31-45, 2nd immunization (day 13), listed as ARFP
[3] = individual mice 31-45, 3d immunization (day 35), listed as ARFP
[4] = individual mice 31-45, Sacrifice (day 53), listed as ARFP

B1: Fmut8Δ11: truncated recombinant HCV-1a F protein lacking the first 11 N-terminal residues shared with core; SEQ ID NO: 12; produced in E. coli (protein)
chain: PNVTPTVAHRTSSSRVAVRSLVEFTCCRAGALDWVCARRGRLPSGRNLEVDVSLSPRHVGPRAGPGLSPGTLGPSMAMRAADGRDGSCLPVALGLVGAPQTPGVGRAIWVRSSIPSRAASPTSWGTYRSSAPPLEALPGPWRMASGFWRTA
modifications: Hepatitis C virus
Question: Which “ARFP-specific Ig titer, mean+/−standard deviation” value (before the 2nd immunization) does the source give for B1 here?
Answer: 10.00+/−27.08

Question: And the “anti-ARFP Ig titer, mean+/−standard deviation” value (day 35)?
Answer: 1400+/−419.5

Question: What about the “anti-ARFP Ig titer, mean+/−standard deviation” value (day 53) of the same molecule?
Answer: 1547+/−199.6

Question: And the “Titer (anti-ARFP Ig ELISA)” value (individual mice 31-45, 1st immunization (day 0))?
Answer: 0

Question: And the “ELISA OD410, serum dilution 1/50” value [1]?
Answer: 0.211 and 0.209 and 0.199 and 0.218 and 0.323 and 0.278 and 0.229 and 0.166 and 0.236 and 0.243 and 0.247 and 0.208 and 0.206 and 0.205 and 0.217

Question: And the “ELISA OD410, serum dilution 1/100” value [1]?
Answer: 0.128 and 0.115 (2×) and 0.174 and 0.208 and 0.186 and 0.171 and 0.152 and 0.161 (2×) and 0.145 and 0.134 and 0.132 and 0.142 and 0.127

Question: What about the “ELISA OD410, serum dilution 1/200” value [1] of the same molecule?
Answer: 0.123 and 0.150 and 0.128 and 0.136 (2×) and 0.114 and 0.111 and 0.121 and 0.113 (2×) and 0.104 and 0.117 and 0.164 and 0.144 and 0.140

Question: And the “ELISA OD410, serum dilution 1/400” value [1]?
Answer: 0.132 and 0.164 and 0.114 and 0.118 and 0.116 and 0.121 and 0.133 and 0.115 and 0.104 and 0.110 and 0.120 and 0.128 and 0.191 and 0.138 and 0.126

Question: And the “ELISA OD410, serum dilution 1/800” value [1]?
Answer: 0.119 and 0.138 and 0.113 and 0.118 and 0.115 (2×) and 0.117 and 0.128 and 0.108 and 0.103 and 0.105 and 0.123 and 0.134 and 0.137 and 0.114

Question: What about the “ELISA OD410, serum dilution 1/1600” value [1] of the same molecule?
Answer: 0.138 and 0.122 and 0.109 (2×) and 0.110 and 0.116 and 0.124 and 0.108 and 0.106 and 0.107 and 0.105 and 0.119 and 0.129 and 0.127 and 0.114

Question: And the “ELISA OD410, serum dilution 1/50” value [2]?
Answer: 0.732 and 0.272 and 0.750 and 0.293 and 0.231 and 0.965 and 0.137 and 0.916 and 0.132 and 0.13 and 0.186 and 0.049 and 0.046 and 0.048 and 0.045

Question: And the “ELISA OD410, serum dilution 1/100” value [2]?
Answer: 0.306 and 0.117 and 0.197 and 0.157 and 0.138 and 0.890 and 0.113 and 0.742 and 0.112 and 0.116 and 0.105 and 0.045 and 0.053 and 0.048 and 0.046

Question: And the “ELISA OD410, serum dilution 1/200” value [2]?
Answer: 0.165 and 0.113 and 0.166 and 0.127 and 0.160 and 0.815 and 0.108 and 0.441 and 0.107 (2×) and 0.111 and 0.102 and 0.798 and 0.116 and 0.123

Question: And the “ELISA OD410, serum dilution 1/400” value [2]?
Answer: 0.147 and 0.110 (2×) and 0.154 and 0.121 and 0.117 and 0.677 and 0.328 and 0.107 and 0.105 and 0.115 and 0.101 and 0.279 and 0.103 and 0.120

Question: And the “ELISA OD410, serum dilution 1/800” value [2]?
Answer: 0.124 and 0.106 (5×) and 0.137 and 0.123 and 0.125 and 0.454 and 0.105 and 0.219 and 0.099 and 0.097 and 0.273

Question: And the “ELISA OD410, serum dilution 1/1600” value [2]?
Answer: 0.120 (2×) and 0.118 (2×) and 0.119 and 0.590 and 0.104 and 0.171 and 0.105 and 0.108 and 0.103 and 0.096 and 0.223 and 0.110 (2×)

Question: And the “Titer (anti-ARFP Ig ELISA)” value [2]?
Answer: 0 (13×) and 100 and 50

Question: What about the “ELISA OD410, serum dilution 1/50” value [3] of the same molecule?
Answer: 3.652 and 3.551 and 3.142 and 3.623 and 3.509 and 3.334 and 3.530 and 3.887 and 3.464 and 3.796 and 1.628 and 1.467 and 2.140 and 2.336 and 2.453

Question: What about the “ELISA OD410, serum dilution 1/100” value [3] of the same molecule?
Answer: 3.642 and 2.683 and 3.700 and 2.841 and 3.563 and 3.625 and 3.306 and >4.000 (2×) and 3.808 and 1.093 and 1.941 and 2.487 and 1.264 and 2.058

Question: And the “ELISA OD410, serum dilution 1/200” value [3]?
Answer: 3.616 and 2.046 and 3.630 and 2.088 and 3.556 and 3.596 and 2.436 and 3.957 and 3.541 and >4.000 and 3.494 and 2.657 and 1.722 and 0.993 and 1.772

Question: And the “ELISA OD410, serum dilution 1/400” value [3]?
Answer: 3.569 and 1.681 and 3.296 and 1.522 and 3.465 and 3.590 and 1.859 and 3.799 and 3.582 and 3.896 and 3.238 and 2.397 and 1.929 and 0.725 and 1.607

Question: And the “ELISA OD410, serum dilution 1/800” value [3]?
Answer: 3.434 and 1.072 and 3.166 and 0.937 and 3.213 and 3.438 and 1.297 and 3.425 and 3.053 and 2.776 and 2.442 and 2.015 and 1.185 and 0.508 and 1.517

Question: And the “ELISA OD410, serum dilution 1/1600” value [3]?
Answer: 3.521 and 0.641 and 3.190 and 0.590 and 3.181 and 3.455 and 0.931 and 3.139 and 2.783 and 1.989 and 1.713 and 1.578 and 0.957 and 0.408 and 1.453

Question: What about the “Titer (anti-ARFP Ig ELISA)” value [3] of the same molecule?
Answer: >1600 (12×) and 800 (2×) and 200

Question: What about the “ELISA OD410, serum dilution 1/50” value [4] of the same molecule?
Answer: 2.023 and 2.008 and 1.658 and 1.054 and 1.709 and 1.411 and 1.314 and 1.736 and 2.224 and 1.741 and 1.006 and 1.424 and 1.613 and 1.434 and 1.373

Question: What about the “ELISA OD410, serum dilution 1/100” value [4] of the same molecule?
Answer: 2.028 and 1.542 and 1.830 and 1.646 and 1.839 and 1.829 and 1.483 and 2.139 and 1.904 and 1.714 and 1.872 and 1.790 and 1.912 and 1.489 and 1.880

Question: And the “ELISA OD410, serum dilution 1/200” value [4]?
Answer: 2.202 and 2.602 and 1.876 and 1.837 and 1.805 and 2.091 and 1.948 and 2.168 and 2.422 and 1.540 and 1.773 and 1.658 and 1.724 and 1.471 and 2.006

Question: And the “ELISA OD410, serum dilution 1/400” value [4]?
Answer: 2.376 and 2.547 and 1.889 and 1.913 and 1.776 and 2.225 and 1.925 and 2.356 and 2.456 and 1.266 and 1.783 and 1.907 and 1.312 and 1.223 and 1.919

Question: And the “ELISA OD410, serum dilution 1/800” value [4]?
Answer: 2.490 and 1.574 and 1.874 and 1.814 and 1.617 and 2.117 and 1.671 and 1.664 and 2.196 and 0.928 and 1.825 and 2.059 and 1.478 and 1.136 and 2.197

Question: What about the “ELISA OD410, serum dilution 1/1600” value [4] of the same molecule?
Answer: 2.209 and 1.970 and 2.157 and 1.987 and 1.674 and 2.269 and 1.574 and 1.671 and 1.659 and 0.648 and 1.749 and 2.062 and 1.233 and 1.157 and 1.672

Question: And the “Titer (anti-ARFP Ig ELISA)” value [4]?
Answer: >1600 (14×) and 800
